# Reference: publication PMC10761123 (RNA Biology, 2023)
# Target: the molecule itself
# Assay: crystal structure
protein,measurement,value
"Arabidopsis thaliana PUMY K185A mutant, C-terminal His-tagged, as crystallized (enzyme, UniProt Q84K35 21-330, looked up) EANNKLRSLVKISPQVSEALSNGRAVVALESTIISHGMPYPQNLQTAKEVESIVRENGAIPATIAILNGVPCIGLSEEELERLASLGKSVQKTAGRDIANVVATRGNGATTVSATLFFASMVGIQVFVTGGIGGVHRHANHSMDISSDLTALGRTPIAVISAGVASILDIPKTLEYLETQEVYVAAYKSDEFPAFFTEKSGCKAPSRVNSPEDCARVIDANMKLNRQAGILFAIPIPKHHSAAGNLIESATQRALTEAREQNVTGNAETPFLLARVNELTGGTSLAANIALVKNNALIGSQIAVALSQLM",stoichiometry N,3
